Target: tick-borne encephalitis virus capsid protein (tick-borne encephalitis virus, strain Kuutsalo-14)
Assay: cross-linking

Q: With “tick-borne encephalitis virus capsid protein (natural protein)” as the substance, how does the stoichiometry N read?
A: 2

— paper doi:10.1101/2021.10.29.464531
